Experimental data taken from publication PMC5379070.

How the values were obtained:
Assay in all cases: native gel or EMSA; blue-native PAGE of the trimer-size SEC fractions (Superdex 200 Increase, TBS) after antibody affinity purification
[1] = biological target: B41 SOSIP.664 trimer (HIV-1 isolate B41 (subtype B))
[2] = biological target: 327c SOSIP.664 trimer (HIV-1 isolate 327c (subtype C))
[3] = biological target: SIV trimer SIVcpzMT145 SOSIP.664 (simian immunodeficiency virus SIVcpzMT145)
[4] = biological target: CRF02_AG_250 SOSIP.664 trimer (HIV-1 isolate CRF02_AG_250 (subtype AG))

With B41 SOSIP.664 trimer (complex) the stoichiometry N [1] was 3.
327c SOSIP.664 trimer (complex) was tested, and the stoichiometry N [2] was 3.
“SIV trimer SIVcpzMT145 SOSIP.664 (complex)” showed a stoichiometry N [3] of 3.
With CRF02_AG_250 SOSIP.664 trimer (complex) the stoichiometry N [4] was 3.
